According to US20140220033A1, “Administration of an Anti-Activin-A Compound to a Subject” (Santa Maria Biotherapeutics, Inc., priority 2013, published 2014):

B1: recombinant activin-A: Recombinant activin-A produced using mammalian expression system (Amgen Inc); stimulus in cell cultures (protein)
chain: GLECDGKVNICCKKQFFVSFKDIGWNDWIIAPSGYHANYCEGECPSHIAGTSGSSLSFHSTVINHYRMRGHSPFANLKSCCVPTKLRPMSMLYYDDGQNIIKKDIQNMIVEECGCS

Columns and labels:
[1] = tested on: TOV-21G ovarian cancer xenografts; assay: TOV-21G ovarian cancer xenograft growth in nude mice; format: in vivo, mouse
Protocol: 5×10^6 TOV-21G ovarian cancer cells were implanted subcutaneously into individual female athymic nu/nu mice (Harlan). Treatment was initiated at day 12 after tumor implantation, when the average tumor volume reached approximately 150 mm^3. The mice received PBS, sActRIIB (30 mg/kg, SC, 1×/week) or activin-A antibody (30 mg/kg, SC, 2×/week). In a separate chemotherapy combination experiment, the mice were treated with PBS, sActRIIB (10 mg/kg, SC, 1×/week), 5-FU (50 mg/kg, IP, 3 cycles, 4 daily injections per cycle) or sActRIIB and 5-FU combination at the same doses above.
For all xenograft experiments, the tumor sizes were measured longitudinally by using an electronic caliper Immediately prior to the 1st dose, the tumor-bearing mice were randomized to ensure even distribution in tumor sizes across different groups. Tumor volumes (mm^3) were calculated as tumor length (mm)×tumor width (mm)×tumor height (mm) Tumor weights were determined by necropsy.
In another experiment, athymic nude mice received TOV-21G xenografts in the abdominal flank. After 14 days, subcutaneous hu-sActRIIB-Fc was administered weekly alone or in combination with 5-FU.

VEGF transcripts = assay: VEGF mRNA in cell cultures (real-time RT-PCR); format: cell-based, human, bovine; conditions: TOV-21G, BAEC, MRC-5, CCD-Lu, U937 cultures treated with recombinant activin-A, without or with sActRIIB; FIG. 16A
Ang-1 mRNA = Ang-1 mRNA in cell cultures (real-time RT-PCR); format: cell-based, human, bovine; conditions: BAEC, MRC-5 and CCD-Lu cultures treated with recombinant activin-A, without or with sActRIIB; FIG. 16B
VEGF = VEGF release into culture medium (ELISA); format: cell-based, human; conditions: TOV21G, MRC-5, CCD-Lu and TPH-1 cells treated with activin-A, without or with sActRIIB; FIG. 17A
Protocol: (§1) The serum VEGF levels in inh-KO mice were measured by using immunoassay kit (R&D Systems), and the levels of human VEGF and Ang-1 in cell line culture medium were quantified using ELISA kits purchased from Invitrogen (VEGF) and R&D Systems (Ang-1), by following the manufacturers' recommended protocols.

Ang-1 = Ang-1 release into culture medium (ELISA); format: cell-based, human; conditions: MRC-5 and CCD-Lu cells treated with activin-A, without or with sActRIIB; FIG. 17B
Protocol: as §1

activin-A (βA) mRNA = assay: Endogenous activin-A (βA) mRNA in cell cultures (real-time RT-PCR); format: cell-based, human, bovine; conditions: TOV21G, BAEC, MRC-5, CCD-Lu, U937 and THP-1 cultures treated with recombinant activin-A, without or with sActRIIB; FIG. 18

Molecule | tumor growth reduction ([1]; 52 days after tumor cell injection, versus vehicle-treated tumor-bearing group, p<0.0001, weekly SC hu-sActRIIB-Fc from day 14, alone or with 5-FU) [%] | rate of tumor growth of TOV-21G xenografts ([1]; chemotherapy combination experiment, sActRIIB 10 mg/kg SC 1x/week, 5-FU 50 mg/kg IP 3 cycles, alone or together, FIG. 13) | levels of VEGF transcripts (VEGF transcripts) | levels of Ang-1 mRNA (Ang-1 mRNA) | release of VEGF into the culture medium (VEGF) | release of Ang-1 into the culture medium (Ang-1) | endogenous βA mRNA expression (activin-A (βA) mRNA)
O=c1[nH]cc(F)c(=O)[nH]1 [5-FU, 5-Fluorouracil, reference compound] | 47 | decreased the rate of tumor growth significantly | – | – | – | – | –
B1 | – | – | marked increases | marked increases | increased the release | increased the release | markedly upregulated
